# Results: PMC12058022, “Promiscuous structural cross-compatibilities between major shell components of Klebsiella pneumoniae bacterial microcompartments” (PLOS One, 2025)
# B1: PduJ, His6-tagged (natural protein, Klebsiella pneumoniae (strain 342), UniProt A6TDD7 1-91, looked up)
# chain: MNNALGLVETKGLVGAIEAADAMVKSANVQLIGYEKIGSGLITVMVRGDVGAVKAAVDAGSAAASVVGEVKSSHVIPRPHSDVEAILPKSV
# notes: PduJ, canonical BMC-H shell protein of the PDU microcompartment; theoretical monomer MW 9.2 kDa; not shown: His6, C-terminal, kept
# B2: PduA, His6-tagged (natural protein, Klebsiella pneumoniae (strain 342), UniProt A0ACD7U6D6 1-94, looked up)
# chain: MQQEALGMVETKGLTAAIEAADAMVKSANVLLVGYERIGSGLVTVIVRGDVGAVKAATDAGAAAARHVGEVKAVHVIPRPHTDVEKILPKGNSQ
# notes: PduA, canonical BMC-H shell protein of the PDU microcompartment; theoretical monomer MW 9.8 kDa; source: also co-expressed with a FLAG-tagged partner, in soluble lysate fraction and co-purified; not shown: His6, C-terminal, kept
# What was measured:
# Test in all cases: SEC; SEC-HPLC of purified individual His6-tagged BMC-H (urea-purified fractions; EutM, CmcB and EutK also from the soluble fraction), Beckman Ultraspherogel SEC2000, 20 mM Tris-HCl, 300 mM NaCl, pH 7; size from calibration standards
# [1] = molecular target: CmcA, His6-tagged (Klebsiella pneumoniae (strain 342))
# [2] = molecular target: CmcB, His6-tagged (Klebsiella pneumoniae (strain 342))
# [3] = molecular target: CmcC, His6-tagged (Klebsiella pneumoniae (strain 342))
# [4] = molecular target: CmcE, C-terminally His6-tagged (Klebsiella pneumoniae (strain 342))
# [5] = molecular target: CmcE, N-terminally His6-tagged (Klebsiella pneumoniae (strain 342))
# [6] = molecular target: EutM, His6-tagged (Klebsiella pneumoniae (strain 342))
# [7] = molecular target: EutS, His6-tagged (Klebsiella pneumoniae (strain 342))
# [8] = molecular target: PduU, N-terminally His6-tagged (Klebsiella pneumoniae (strain 342)) (UniProt A6TDE7)
# [9] = molecular target: the molecule itself
molecule,measurement,setting,value
"CmcA, His6-tagged (natural protein)",stoichiometry N,[1],6
"CmcB, His6-tagged (natural protein)",stoichiometry N,[2],6
"CmcC, His6-tagged (natural protein)",stoichiometry N,[3],6
"CmcE, C-terminally His6-tagged (natural protein)",stoichiometry N,[4],6
"CmcE, N-terminally His6-tagged (natural protein)",stoichiometry N,[5],6
"EutM, His6-tagged (from UniProt A0A377ZA59 1-64) (natural protein)",stoichiometry N,[6],6
"EutS, His6-tagged (natural protein)",stoichiometry N,[7],6
"PduU, N-terminally His6-tagged (from UniProt A6TDE7 1-116) (natural protein)",stoichiometry N,[8],6
B1,stoichiometry N,[9],6
B2,stoichiometry N,[9],6
